Source: patent US20070196354A1, “Method of treating diabetes by inhibiting degradation of at least one of crebl1, atf6, and hnf-4 alpha by htra” (priority 2003, published 2007)

T1: CREBL1 (Homo sapiens, UniProt Q99941)
T1 construct: expressed in transfected cells; host or cells: HEK293T
T1 sequence (Q99941 1-703): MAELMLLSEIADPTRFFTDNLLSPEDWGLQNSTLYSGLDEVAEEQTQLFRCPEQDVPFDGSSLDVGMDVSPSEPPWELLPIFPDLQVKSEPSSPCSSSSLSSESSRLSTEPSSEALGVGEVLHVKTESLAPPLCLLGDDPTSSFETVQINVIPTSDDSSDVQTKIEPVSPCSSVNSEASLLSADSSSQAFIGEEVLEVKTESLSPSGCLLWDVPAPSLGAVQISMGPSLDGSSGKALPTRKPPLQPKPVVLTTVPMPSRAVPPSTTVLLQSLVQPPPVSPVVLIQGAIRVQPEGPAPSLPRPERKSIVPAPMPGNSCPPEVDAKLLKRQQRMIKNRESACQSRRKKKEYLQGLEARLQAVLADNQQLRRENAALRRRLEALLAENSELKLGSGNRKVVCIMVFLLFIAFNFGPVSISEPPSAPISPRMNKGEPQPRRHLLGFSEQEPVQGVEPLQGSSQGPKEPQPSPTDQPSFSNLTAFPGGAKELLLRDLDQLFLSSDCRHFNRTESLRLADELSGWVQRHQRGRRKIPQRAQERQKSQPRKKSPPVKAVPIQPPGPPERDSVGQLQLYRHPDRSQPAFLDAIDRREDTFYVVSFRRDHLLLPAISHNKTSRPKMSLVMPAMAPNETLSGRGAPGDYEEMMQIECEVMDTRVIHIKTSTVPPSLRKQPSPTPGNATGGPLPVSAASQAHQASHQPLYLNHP

T2: HNF-4α (Homo sapiens, UniProt P41235)
T2 construct: expressed in transfected cells; host or cells: HEK293T
T2 sequence (P41235 10-474): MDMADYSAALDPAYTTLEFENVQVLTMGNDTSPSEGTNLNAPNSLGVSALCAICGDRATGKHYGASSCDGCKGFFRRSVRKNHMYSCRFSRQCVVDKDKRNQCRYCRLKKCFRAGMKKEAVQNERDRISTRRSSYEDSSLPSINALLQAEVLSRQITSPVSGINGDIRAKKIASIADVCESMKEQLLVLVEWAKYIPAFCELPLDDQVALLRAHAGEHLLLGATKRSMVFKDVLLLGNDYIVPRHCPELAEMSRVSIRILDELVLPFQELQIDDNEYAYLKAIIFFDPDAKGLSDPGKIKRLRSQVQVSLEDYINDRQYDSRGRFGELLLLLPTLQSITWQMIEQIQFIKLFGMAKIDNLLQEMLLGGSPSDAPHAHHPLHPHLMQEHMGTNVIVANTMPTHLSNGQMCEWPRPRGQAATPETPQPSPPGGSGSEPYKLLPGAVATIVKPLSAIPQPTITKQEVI

T3: ATF6 (Homo sapiens, UniProt P18850)
T3 construct: expressed in transfected cells; host or cells: HEK293T
T3 sequence (P18850 1-670): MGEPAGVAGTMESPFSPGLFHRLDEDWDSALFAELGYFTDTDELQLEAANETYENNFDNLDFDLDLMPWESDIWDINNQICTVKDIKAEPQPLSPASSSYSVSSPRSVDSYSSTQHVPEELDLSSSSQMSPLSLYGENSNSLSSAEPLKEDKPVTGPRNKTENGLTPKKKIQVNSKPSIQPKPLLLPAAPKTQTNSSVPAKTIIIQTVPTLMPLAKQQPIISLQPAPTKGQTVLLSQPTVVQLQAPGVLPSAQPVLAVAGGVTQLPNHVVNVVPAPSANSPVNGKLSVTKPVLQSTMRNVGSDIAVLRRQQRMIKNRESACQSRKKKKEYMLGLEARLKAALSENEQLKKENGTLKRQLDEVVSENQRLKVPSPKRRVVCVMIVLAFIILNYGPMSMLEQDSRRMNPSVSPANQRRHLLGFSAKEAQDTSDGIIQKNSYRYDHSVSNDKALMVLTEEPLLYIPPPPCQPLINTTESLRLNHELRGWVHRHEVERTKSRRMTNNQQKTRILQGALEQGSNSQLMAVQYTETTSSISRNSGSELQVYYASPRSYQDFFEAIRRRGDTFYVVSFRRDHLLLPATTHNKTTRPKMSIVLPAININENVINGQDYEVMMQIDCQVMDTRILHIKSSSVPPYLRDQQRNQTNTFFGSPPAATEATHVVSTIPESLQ

B1: mature HtrA2 (S306A, ΔAVPS): SEQ ID NO: 12; mature HtrA2 (S306A) lacking the N-terminal four amino acid residues (AVPS) (protein)
chain: MPPPASPRSQYNFIADVVEKTAPAVVYIEILDRHPFLGREVPISNGSGFVVAADGLIVTNAHVVADRRRVRVRLLSGDTYEAVVTAVDPVADIATLRIQTKEPLPTLPLGRSADVRQGEFVVAMGSPFALQNTITSGIVSSAQRPARDLGLPQTNVEYIQTDAAIDFGNAGGPLVNLDGEVIGVNTMKVTAGISFAIPSDRLREFLHRGEKKNSSSGISGSQRRYIGVMMLTLSPSILAELQLREPSFPDVQHGVLIHKVILGSPAHRAGLRPGDVILAIGEQMVQNAEDVYEAVRTQSQLAVQIRRGRETLTLYVTPEVTE
modifications: Polypeptide consisting of the same amino acid sequence of SEQ ID NO6 wherein the amino acid residues from the 2nd to the 5th are deleted; mature HtrA2(S306A, delta AVPS)
B2: mature HtrA2 (S306A, GVPS): SEQ ID NO: 14; mature HtrA2 (S306A) with N-terminal alanine substituted with glycine (protein)
chain: MGVPSPPPASPRSQYNFIADVVEKTAPAVVYIEILDRHPFLGREVPISNGSGFVVAADGLIVTNAHVVADRRRVRVRLLSGDTYEAVVTAVDPVADIATLRIQTKEPLPTLPLGRSADVRQGEFVVAMGSPFALQNTITSGIVSSAQRPARDLGLPQTNVEYIQTDAAIDFGNAGGPLVNLDGEVIGVNTMKVTAGISFAIPSDRLREFLHRGEKKNSSSGISGSQRRYIGVMMLTLSPSILAELQLREPSFPDVQHGVLIHKVILGSPAHRAGLRPGDVILAIGEQMVQNAEDVYEAVRTQSQLAVQIRRGRETLTLYVTPEVTE
modifications: Polypeptide consisting of the same amino acid sequence of SEQ ID NO6 wherein the 2nd amino acid residue is substituted by Gly; mature HtrA2(S306A, GVPS)
notes: mature HtrA2 (S306A) with N-terminal alanine substituted with glycine

Key:
CREBL1 = target: T1, CREBL1; assay: Intracellular protease assay, co-expression with CREBL1 in HEK293T cells; type: cell-based; conditions: 48 hours
Procedure: (§1) HEK293T cells were cultured to 1.5×10^5 cells/10 cm Dish. Next day, the expression plasmid of CREBL1 or ATF6 was transfected into HEK293T cells together with the expression plasmid of various types of HtrA2 using FuGene 6 (Roche). Each of the expression plasmid of various HtrA2 at 1 μg/Dish was added in combination with CREBL1 expression plasmid or ATF6 expression plasmid at 1 μg/Dish. Forty eight hours later, the cells in which the various types of HtrA2 were co-expressed with CREBL1 or ATF6 were added with 200 μl of lysis buffer B and an equivalent volume of 2×SDS sample buffer (containing 0.1% β-mercaptoethanol), and then subjected to sonication followed by boiling to use as a test sample.
(§2) Expression of CREBL1 and ATF6 and the degradation of these proteins were detected by western blotting using 10 μl of the test sample thus obtained. Anti-c-Myc (9E10) antibody was used as a primary antibody for detection, and horseradish peroxidase (HRP) conjugated anti-mouse IgG antibody (Cell Signaling) was used as a secondary antibody. Detection was carried out using ECL Western Blotting Detection System.

HNF-4α = target: T2, HNF-4α; assay: Intracellular protease assay, co-expression with HNF-4α in HEK293T cells; type: cell-based; conditions: 48 hours
Procedure: as §1, with “cells/6” for “cells/10”, “HNF-4α” for “CREBL1 or ATF6”, “HNF-4α” for “CREBL1 expression plasmid or ATF6”
Expression of HNF-4α and the degradation of HNF-4α were detected by western blotting using 10 μl of the test sample thus obtained. Anti-FLAG antibody (Sigma) was used as a primary antibody for detection, and horseradish peroxidase (HRP) labeled anti-mouse IgG antibody (Cell Signaling) was used as a secondary antibody. Detection was carried out using ECL Western Blotting Detection System.

ATF6 = target: T3, ATF6; assay: Intracellular protease assay, co-expression with ATF6 in HEK293T cells; type: cell-based; conditions: 48 hours
Procedure: as §1, §2

casein = assay: Casein zymography and protease assay with casein sodium; type: biochemical; conditions: HtrA2 types expressed in a cultured cell
Procedure: Determination of the activity of mature HtrA2 and mature HtrA2 (S306A) was carried out with casein zymography and with a protease assay with casein sodium. Casein zymography was carried out according to the protocol (Invitrogen). More concretely, mature HtrA2 and mature HtrA2 (S306A) were mixed under non-reductive condition with equivalent volume of 2×SDS sample buffer, left to stand at room temperature for 10 min, followed by separation with 4-16% zymogram (Blue casein) gel (Zymogram Gel, Invitrogen). After completion of electrophoresis, they were renatured with 2.5% Triton X-100, and then subjected to a degradation reaction of casein in the developing buffer at 37= C. for overnight.
Meanwhile, a protease assay using casein sodium as an substrate was carried out in such that mature HtrA2 or mature HtrA2 (S306A) was mixed with casein sodium in a reaction buffer (150 mM NaCl, 50 mM Tris-HCl (pH 7.5)) so as to the concentration of the former might become 200 μg/ml and the concentration of the latter might become 400 μg/ml, and incubated at 37° C. for reactions. A portion of the reaction solution was sampled at three hours and overnight after initiation of the reaction, mixed with equivalent volume of 2×SDS sample buffer followed by boiling, and then subjected to SDS-PAGE. After that, the degradation of casein sodium was detected by Coomassie Brilliant Blue (CBB) staining.
The enzyme activity of the various types of HtrA2 each of which was expressed in a cultured cell was determined by the protease assay using casein sodium as a substrate (see Example 2).

Molecule	degradation of CREBL1 in cells (band by western blotting) (CREBL1)	degradation of HNF-4α in cells (band by western blotting) (HNF-4α)	degradation of ATF6 in cells (band by western blotting) (ATF6)	protease activity using casein sodium as a substrate (casein)
B1	the reduction of the band of CREBL1 was not observed	the reduction of the band of HNF-4α was not observed	the reduction of the band of ATF6 was not observed	inactive type without exhibiting protease activity
B2	the reduction of the band of CREBL1 was not observed	the reduction of the band of HNF-4α was not observed	the reduction of the band of ATF6 was not observed	inactive type without exhibiting protease activity
